The values below come from US20230390369A1.

In the experiment the target is human PD-L1 on antigen-presenting cells of the Promega J1250 assay (human) (UniProt Q9NZQ7). The experiment in a line: cell-based or functional assay.

The substance atezolizumab (antibody) came in with a Luminescence (RLU) at 0.1 µg/mL of 241000 RLU and a Luminescence (RLU) at 20 µg/mL of 1.47e+06 RLU.
